Laboratory results as given in patent US20250129148A1 (ONCOONE RESEARCH AND DEVELOPMENT, published 2025).
Numbering of substitutions follows the chain as printed.

B1: C0132 (Fc silenced anti-oxMIF x anti-HSG bispecific antibody, Fab/scFv-Fc) (bispecific antibody, human IgG1, kappa, L234A L235A)
heavy: not shown
chain: EVQLVESGGDLVKPGGSLKLSCAASGFTFSIYTMSWLRQTPGKGLEWVATLSGDGDDIYYPDSVKGRFTISRDNAKNSLYLQMNSLRAEDTALYYCARVRLGDWDFDVWGQGTTVSVSSGGSGGSGGSGGSGGSDIVMTQSPSSLAVSPGERVTLTCKSSQSLFNSRTRKNYLGWYQQKPGQSPKLLIYWASTRESGVPDRFSGSGSGTDFTLTINSLQAEDVAVYYCTQVYYLCTFGAGTKLELKGGGGSDKTHTCPPCPAPEAAGGPSVFLFPPKPKDTLMISRTPEVTCVVVDVSHEDPEVKFNWYVDGVEVHNAKTKPREEQYNSTYRVVSVLTVLHQDWLNGKEYKCKVSNKALPAPIEKTISKAKGQPREPQVCTLPPSRDELTKNQVSLSCAVKGFYPSDIAVEWESNGQPENNYKTTPPVLDSDGSFFLVSKLTVDKSRWQQGNVFSCSVMHEALHNHYTQKSLSLSPG
light: DIQMTQSPSSLSASVGDRVTITCRSSQRIMTYLNWYQQKPGKAPKLLIYVGSHSQSGVPSRFRGSGSETDFTLTISGLQPEDSATYYCQQSFFTPLTFGGGTKVEIKRTVAAPSVFIFPPSDEQLKSGTASVVCLLNNFYPREAKVQWKVDNALQSGNSQESVTEQDSKDSTYSLSSTLTLSKADYEKHKVYACEVTHQGLSSPVTKSFNRGEC
notes: One anti-oxMIF arm only; also called bsMab C0132
B2: C0133 (Fc silenced anti-oxMIF x anti-HSG bispecific antibody, Fab/Fab-scFv-Fc) (bispecific antibody, human IgG1, kappa, L234A L235A)
heavy: not shown
chain: EVQLQESGGGLVQPGGSLRLSCAASGFTFSIYSMNWVRQAPGKGLEWVSSIGSSGGTTYYADSVKGRFTISRDNSKNTLYLQMNSLRAEDTAVYYCAGSQYLYGMDVWGQGTTVTVSSASTKGPSVFPLAPSSKSTSGGTAALGCLVKDYFPEPVTVSWNSGALTSGVHTFPAVLQSSGLYSLSSVVTVPSSSLGTQTYICNVNHKPSNTKVDKKVEPKSCGGGGSGGGGSEVQLVESGGDLVKPGGSLKLSCAASGFTFSIYTMSWLRQTPGKGLEWVATLSGDGDDIYYPDSVKGRFTISRDNAKNSLYLQMNSLRAEDTALYYCARVRLGDWDFDVWGQGTTVSVSSGGSGGSGGSGGSGGSDIVMTQSPSSLAVSPGERVTLTCKSSQSLFNSRTRKNYLGWYQQKPGQSPKLLIYWASTRESGVPDRFSGSGSGTDFTLTINSLQAEDVAVYYCTQVYYLCTFGAGTKLELKGGGGSGGGGSKTHTCPPCPAPEAAGGPSVFLFPPKPKDTLMISRTPEVTCVVVDVSHEDPEVKFNWYVDGVEVHNAKTKPREEQYNSTYRVVSVLTVLHQDWLNGKEYKCKVSNKALPAPIEKTISKAKGQPREPQVCTLPPSRDELTKNQVSLSCAVKGFYPSDIAVEWESNGQPENNYKTTPPVLDSDGSFFLVSKLTVDKSRWQQGNVFSCSVMHEALHNHYTQKSLSLSPG
light: B1 light
notes: also called bsMab C0133
B3: C0008 (control/reference anti-oxMIF antibody) (antibody, human IgG1, kappa, V domains shown)
VH: EVQLLESGGGLVQPGGSLRLSCAASGFTFSIYSMNWVRQAPGKGLEWVSSIGSSGGTTYYADSVKGRFTISRDNSKNTLYLQMNSLRAEDTAVYYCAGSQWLYGMDVWGQGTTVTVSS
VL: DIQMTQSPSSLSASVGDRVTITCRSSQRIMTYLNWYQQKPGKAPKLLIFVASHSQSGVPSRFRGSGSETDFTLTISGLQPEDSATYYCQQSFWTPLTFGGGTKVEIKR
notes: Human IgG1 with wt Fc; also called control antibody
B4: C0118 (Fc silenced anti-oxMIF antibody) (antibody, human IgG1, kappa, L234A L235A, V domains shown)
VH: B3 VH with L5Q, W101Y
VL: B3 VL with M30L, F49Y, A51G, P80S, W93F
B5: C0115 (Fc silenced anti-oxMIF antibody) (antibody, human IgG1, kappa, L234A L235A, V domains shown)
VH: B3 VH with L5Q, W101Y
VL: B3 VL with F49Y, A51G, W93F

Assays:
[1] = target: T1, oxMIF (recombinant human MIF immobilized into ELISA plates, transforming MIF to oxMIF) (human, UniProt P14174 2-115); test: ELISA on immobilized MIF (oxMIF), 4-parameter fit
T1 construct: Oxidised conformational isoform produced by coating the plate at 1 ug/ml in PBS overnight; also called immobilized MIF (oxMIF); immobilized oxMIF
Description: (§1) Recombinant human MIF diluted in PBS at 1 μg/ml was immobilized into ELISA plates overnight at 4° C. (transforming MIF to oxMIF according to Thiele et al., 2015). After blocking, serial dilutions of anti-oxMIF antibodies were added to the plates. Finally, bound antibodies were detected using a Goat anti-human IgG (Fc)-HRP conjugate and tetramethylbenzidine (TMB) as substrate. The chromogenic reaction was stopped with 3M H₂SO₄ and OD was measured at 450 nm. Data from different experiments were normalized to the maximal OD of the anti-oxMIF antibody C0008 (=100%) of the respective experiment and EC₅₀ values were determined by 4-parameter fit using GraphPad Prism (and the mean+/−SEM of two experiments is shown).
Materials and Methods: Recombinant human MIF diluted in PBS at 1 μg/ml was immobilized into ELISA plates overnight at 4° C. (transforming MIF to oxMIF according to Thiele et al., 2015). After blocking, serial dilutions of antibodies were added to the plates, and ELISA was performed as described in the Example 3.

[2] = target: T1, oxMIF (recombinant human MIF …); test: ELISA on immobilized MIF (oxMIF); EC50 of 4-parameter fit given as apparent KD
Description: as §1
Anti-oxMIF antibodies were detected by an anti-human-IgG (Fc)-HRP conjugate, C0008 was used as reference antibody. EC₅₀ values were determined by sigmoidal, 4-parameter equation using GraphPad Prism (mean+/−SEM of two experiments is shown)

T1 sequence (P14174 2-115 limits assumed): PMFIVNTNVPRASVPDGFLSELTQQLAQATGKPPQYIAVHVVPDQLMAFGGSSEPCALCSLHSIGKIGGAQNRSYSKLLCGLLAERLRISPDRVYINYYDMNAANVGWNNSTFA

| Binder | EC50 [1] [nM] | Kd [2] [nM] |
| --- | --- | --- |
| B1 | 2.51 | – |
| B2 | 0.242 | – |
| B3 | 0.158 | 0.19 |
| B4 | – | 0.26 |
| B5 | – | 0.28 |
